The target in data set [1] is T1, YdiI (Escherichia coli, UniProt P77781).
T1 sequence (P77781 1-136): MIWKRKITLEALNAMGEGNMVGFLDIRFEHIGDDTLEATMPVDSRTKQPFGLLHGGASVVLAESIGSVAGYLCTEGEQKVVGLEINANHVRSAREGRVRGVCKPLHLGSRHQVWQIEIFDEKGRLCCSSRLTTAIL
Briefly: steady-state inhibition of thioester hydrolysis, DTNB coupled assay. Type of data set: biochemical.

Data set [2] addresses T2, YbdB (Escherichia coli, UniProt P0A8Y8).
T2 sequence (P0A8Y8 1-137): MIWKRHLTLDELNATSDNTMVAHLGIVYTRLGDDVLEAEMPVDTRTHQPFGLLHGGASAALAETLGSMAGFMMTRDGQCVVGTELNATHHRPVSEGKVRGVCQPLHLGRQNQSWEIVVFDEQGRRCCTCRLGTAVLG
The description is as above. It is filed as biochemical.

The target in data set [3] is T1, YdiI. The experiment in a line: steady-state kinetics, DTNB coupled assay at […] nm. Type of data set: biochemical. The conditions noted are these: pH 7.5, 25 °C; 50 mM K+HEPES, 1 mM DTNB.
In data set [4] the target is T3, YbdB (Escherichia coli, UniProt P0A8Y8, M68V).
T3 sequence (P0A8Y8 1-137 M68V): T2 sequence (P0A8Y8 1-137)
Briefly: steady-state kinetics, DTNB coupled assay at […] nm. It is filed as biochemical. The following applies: pH 7.5, 25 °C; 50 mM K+HEPES, 1 mM DTNB.

Data set [5] deals with T1, YdiI. Briefly: steady-state inhibition of 4-hydroxybenzoyl-CoA hydrolysis, direct […] nm assay. It is filed as biochemical.
In data set [6] the target is T2, YbdB. The data set is described as above. It is filed as biochemical.
Substrate in the data set “purified protein”: CC(C)(COP(=O)(O)OP(=O)(O)OC[C@H]1O[C@@H](n2cnc3c(N)ncnc32)[C@H](O)[C@@H]1OP(=O)(O)O)[C@@H](O)C(=O)NCCC(=O)NCCSC(=O)c1ccccc1
The experiment in a line: purified protein. The following applies: pH 7.5, 25 °C, 50 mM K+HEPES, 1 mM DTNB.

Where a chain is given by its changes, count along the chain named. Names may count otherwise.

In general, Ki refers to the dissociation constant of the complex between target and ligand, obtained from inhibition or displacement. As to `CC(C)(COP(=O)(O)OP(=O)(O)OC[C@H]1O[C@@H](n2cnc3c(N)ncnc32)[C@H](O)[C@@H]1OP(=O)(O)O)[C@@H](O)C(=O)NCCC(=O)NCCSCC(=O)c1ccc(O)cc1O` [compound 5, 2,4-DHP-CoA], the results for the inhibition constant (Ki) at YdiI [1] and at YbdB [2] were 2.5 ± 0.2 µM and 5.9 ± 6 µM, respectively. As to `CC(C)(COP(=O)(O)OP(=O)(O)OC[C@H]1O[C@@H](n2cnc3c(N)ncnc32)[C@H](O)[C@@H]1OP(=O)(O)O)[C@@H](O)C(=O)NCCC(=O)NCCSCC(=O)c1ccccc1` [phenacyl-CoA], the Ki on YdiI [1] came out at 7.8 ± 0.4 µM; on YbdB [2] it was 65 ± 6 µM.

As a reminder, the Km is the substrate concentration at which the rate is half of its maximum. With `CC(C)(COP(=O)(O)OP(=O)(O)OC[C@H]1O[C@@H](n2cnc3c(N)ncnc32)[C@H](O)[C@@H]1OP(=O)(O)O)[C@@H](O)C(=O)NCCC(=O)NCCSC(=O)c1ccccc1` [compound 3, benzoyl-CoA], the Michaelis-Menten constant (Km) at YdiI [3] is 25 ± 3 µM; at YbdB [4], 24 ± 2 µM. Consider `CC(C)(COP(=O)(O)OP(=O)(O)OC[C@H]1O[C@@H](n2cnc3c(N)ncnc32)[C@H](O)[C@@H]1OP(=O)(O)O)[C@@H](O)C(=O)NCCC(=O)NCCS` [compound 4, CoA], for which the Ki was determined as 16 ± 1 µM at YdiI [5] and 210 ± 10 µM at YbdB [6]. In the case of `CCCCCCCCCC(=O)CSCCNC(=O)CCNC(=O)[C@H](O)C(C)(C)COP(=O)(O)OP(=O)(O)OC[C@H]1O[C@@H](n2cnc3c(N)ncnc32)[C@H](O)[C@@H]1OP(=O)(O)O` [compound 6, UDO-CoA], the Ki at YdiI [1] amounted to 12.2 ± 0.5 µM.

B1: YbdB (Escherichia coli K-12) (protein)
chain: T2 sequence (P0A8Y8 1-137)
B1: the Michaelis-Menten constant (Km) in the data set “purified protein” turned out to be 12 ± 1 µM.

B2: YdiI (Escherichia coli K-12; S64A) (protein)
chain: T1 sequence (P77781 1-136) with S64A
Turning to B2, in the data set “purified protein”, the Michaelis constant (Km) is 11.9 ± 0.9 µM.

B3: YdiI (Escherichia coli K-12; H54F) (protein)
chain: T1 sequence (P77781 1-136) with H54F
With B3, in “purified protein”, the Km came to 16.8 ± 0.9 µM.

B4: YdiI (Escherichia coli K-12; S109A) (protein)
chain: T1 sequence (P77781 1-136) with S109A
With B4, the Km in the data set “purified protein” worked out at 14.2 ± 0.2 µM.

B5: YdiI (Escherichia coli K-12; R91A) (protein)
chain: T1 sequence (P77781 1-136) with R91A
With B5, the Michaelis constant (Km) in the data set “purified protein” amounted to 23 ± 3 µM.

B6: YdiI (Escherichia coli K-12; S67A) (protein)
chain: T1 sequence (P77781 1-136) with S67A
For the molecule B6, in “purified protein”, the Km stood at 12.6 ± 0.2 µM.

B7: YdiI (Escherichia coli K-12; H89A) (protein)
chain: T1 sequence (P77781 1-136) with H89A
Regarding B7, in “purified protein”, the Michaelis constant (Km) is 180 ± 10 µM.

B8: YdiI (Escherichia coli K-12; E63D) (protein)
chain: T1 sequence (P77781 1-136) with E63D
As for B8, the Km in the data set “purified protein” was determined as 120 ± 10 µM.

B9: YdiI (Escherichia coli K-12; Q48N) (protein)
chain: T1 sequence (P77781 1-136) with Q48N
For B9, the Km in “purified protein” is 12.6 ± 0.8 µM.

B10: YdiI (Escherichia coli K-12; H54A) (protein)
chain: T1 sequence (P77781 1-136) with H54A
Turning to B10, the Michaelis constant (Km) in the data set “purified protein” was determined as 100 ± 8 µM.

These data come from publication PMC4116151 (Biochemistry, 2014).
